The results in this text go back to paper PMC12392098, “Predicting the DNA binding specificity of transcription factor mutants using family-level biophysically interpretable machine learning”.

Common to all, as to conditions: protein: recombinant; tags: N-terminal 6xHis; mScarlet fusion; chain copies: 2; label: 32P (SRI primer strand); blunt
One data set addresses ASCL2 DBD R5K (human, UniProt Q99929 50-102, R55K). Put plainly: EMSA; preferred over CACGTG probe; 32P EMSA: ~50 nM probe, 0.5/1/2 uM protein, 30 min, reagents as in Feng et al., gel at 4 C; fluorescent EMSA: 5x buffer (50 mM Tris pH 7.5, 250 mM NaCl, 5 mM MgCl2, 20% glycerol, 2.5 mM DTT, 2.5 mM EDTA, 250 ug/ml poly(dI-dC), 1 mg/ml BSA) used at 1x plus half volume protein dialysis buffer (20 mM HEPES pH 7.9, 200 mM NaCl, 10% glycerol, 2 mM MgCl2), gel 0.5x TBE at 4 C. On the technique in general: In EMSA bound probe runs differently from free probe, usually more slowly.

Another data set addresses ASCL2 DBD V13R (human, UniProt Q99929 50-102, V63R). The data set can be described thus: EMSA; preferred over CAGCTG probe; 32P EMSA: ~50 nM probe, 0.5/1/2 uM protein, 30 min, reagents as in Feng et al., gel at 4 C; fluorescent EMSA: 5x buffer (50 mM Tris pH 7.5, 250 mM NaCl, 5 mM MgCl2, 20% glycerol, 2.5 mM DTT, 2.5 mM EDTA, 250 ug/ml poly(dI-dC), 1 mg/ml BSA) used at 1x plus half volume protein dialysis buffer (20 mM HEPES pH 7.9, 200 mM NaCl, 10% glycerol, 2 mM MgCl2), gel 0.5x TBE at 4 C.

Another data set addresses ASCL2 DBD R5K+V13R (human, UniProt Q99929 50-102, R55K;V63R). The description is as above.

Positions count from the first letter of the chain named.

Sequence of ASCL2 DBD V13R (Q99929 50-102 V63R): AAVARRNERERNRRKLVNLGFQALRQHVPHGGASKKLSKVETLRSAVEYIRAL
Sequence of ASCL2 DBD R5K (Q99929 50-102 R55K): as the sequence (Q99929 50-102 V63R) above, with R6K, R14V counted along it
Sequence of ASCL2 DBD R5K+V13R (Q99929 50-102 R55K/V63R): as the sequence (Q99929 50-102 V63R) above, with R6K counted along it

B1: CAGCTG probe (dsDNA)
DNA 1: TAGCCAATAACTTCGTCCCTCAGCTGCATATAAGGAAGATCTAACCACCAATTTGG
DNA 2: CCAAATTGGTGGTTAGATCTTCCTTATATGCAGCTGAGGGACGAAGTTATTGGCTA
On to B1, for which the binding result with ASCL2 DBD R5K is reported as “binds”.

B2: CACGTG probe (dsDNA)
DNA 1: B1 DNA 1 with G23C, C24G
DNA 2: B1 DNA 2 with G33C, C34G
For B2, the binding result in the data set with ASCL2 DBD V13R and with ASCL2 DBD R5K+V13R was “binds” in each case.
